Assay results from patent US20250320302A1 (EVOTEC INTERNATIONAL, published 2025).

T1: human type I IFN receptor on HEK-Blue IFN-α/β cells (human, UniProt P17181 28-557; P48551 27-515)
T1 sequence (looked up) 1: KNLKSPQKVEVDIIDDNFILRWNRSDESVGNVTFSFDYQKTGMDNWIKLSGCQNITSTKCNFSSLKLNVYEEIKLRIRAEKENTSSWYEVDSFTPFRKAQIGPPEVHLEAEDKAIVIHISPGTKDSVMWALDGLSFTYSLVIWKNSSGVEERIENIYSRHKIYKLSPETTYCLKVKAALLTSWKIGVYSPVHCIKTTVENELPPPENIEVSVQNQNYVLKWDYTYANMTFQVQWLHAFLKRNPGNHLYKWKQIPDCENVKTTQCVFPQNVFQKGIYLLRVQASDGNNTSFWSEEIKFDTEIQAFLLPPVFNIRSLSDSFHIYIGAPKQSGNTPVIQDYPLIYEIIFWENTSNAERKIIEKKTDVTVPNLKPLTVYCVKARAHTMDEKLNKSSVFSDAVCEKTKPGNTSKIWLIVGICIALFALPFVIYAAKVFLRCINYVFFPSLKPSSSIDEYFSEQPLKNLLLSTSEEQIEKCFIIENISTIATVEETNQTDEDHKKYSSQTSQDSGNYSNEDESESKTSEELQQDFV
T1 sequence (looked up) 2: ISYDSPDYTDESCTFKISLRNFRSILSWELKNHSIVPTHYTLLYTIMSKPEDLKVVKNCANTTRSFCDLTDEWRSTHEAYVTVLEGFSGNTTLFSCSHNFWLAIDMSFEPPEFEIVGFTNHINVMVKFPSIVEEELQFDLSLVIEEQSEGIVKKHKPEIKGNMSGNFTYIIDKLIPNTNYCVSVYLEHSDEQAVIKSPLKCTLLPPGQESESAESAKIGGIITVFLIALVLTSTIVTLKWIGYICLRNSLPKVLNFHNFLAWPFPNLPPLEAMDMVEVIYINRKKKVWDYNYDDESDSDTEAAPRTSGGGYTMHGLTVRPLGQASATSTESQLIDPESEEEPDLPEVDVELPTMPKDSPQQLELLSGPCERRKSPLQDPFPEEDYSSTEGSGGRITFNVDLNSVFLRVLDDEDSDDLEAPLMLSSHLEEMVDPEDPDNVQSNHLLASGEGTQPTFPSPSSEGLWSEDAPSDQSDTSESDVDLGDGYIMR


Assays:
[1] = target: human CD40 (human, UniProt P25942 21-277); experiment: cell-based or functional assay
human CD40, sequence (P25942 21-277): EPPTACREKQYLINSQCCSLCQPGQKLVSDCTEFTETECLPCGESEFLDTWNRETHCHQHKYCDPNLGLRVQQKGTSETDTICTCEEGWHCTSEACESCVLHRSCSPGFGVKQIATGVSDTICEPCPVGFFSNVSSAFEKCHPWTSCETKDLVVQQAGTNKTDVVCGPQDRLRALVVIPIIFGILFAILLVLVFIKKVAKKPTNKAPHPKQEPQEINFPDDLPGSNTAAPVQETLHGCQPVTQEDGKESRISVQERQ

[2] = target: T1, human type I IFN receptor on HEK-Blue …; experiment: cell-based or functional assay

Row | Binder | CD40 EC50 (HEK-Blue CD40L NFκB-SEAP reporter cells) [1] | IFNβ EC50 (HEK-Blue IFN-α/β SEAP reporter cells) [2] | IFNε EC50 (HEK-Blue IFN-α/β SEAP reporter cells) [2]
1 | IFA19 (antibody, human IgG2, kappa) light: DIQMTQSPSSVSASVGDRVTITCRASQGIYSWLAWYQQKPGKAPNLLIYTASTLQSGVPSRFSGSGSGTDFTLTISSLQPEDFATYYCQQANIFPLTFGGGTKVEIKRTVAAPSVFIFPPSDEQLKSGTASVVCLLNNFYPREAKVQWKVDNALQSGNSQESVTEQDSKDSTYSLSSTLTLSKADYEKHKVYACEVTHQGLSSPVTKSFNRGECSGGTSGSTSGTGSMSYNLLGFLQRSSNFQSQKLLWQLNGRLEYCLKDRMNFDIPEEIKQLQQFQKEDAALTIYEMLQNIFAIFRQDSSSTGWNETIVENLLANVYHQINHLKTVLEEKLEKEDFTRGKLMSSLHLKRYYGRILHYLKAKEYSHCAWTIVRVEILRNFYFINRLTGYLRN heavy: not shown | 0.11 µg/mL | 0.0013 µg/mL | –
2 | IFA1 (antibody, human IgG2, kappa) light: DIQMTQSPSSVSASVGDRVTITCRASQGIYSWLAWYQQKPGKAPNLLIYTASTLQSGVPSRFSGSGSGTDFTLTISSLQPEDFATYYCQQANIFPLTFGGGTKVEIKRTVAAPSVFIFPPSDEQLKSGTASVVCLLNNFYPREAKVQWKVDNALQSGNSQESVTEQDSKDSTYSLSSTLTLSKADYEKHKVYACEVTHQGLSSPVTKSFNRGECAEAAAKEAAAKAMSYNLLGFLQRSSNFQCQKLLWQLNGRLEYCLKDRMNFDIPEEIKQLQQFQKEDAALTIYEMLQNIFAIFRQDSSSTGWNETIVENLLANVYHQINHLKTVLEEKLEKEDFTRGKLMSSLHLKRYYGRILHYLKAKEYSHCAWTIVRVEILRNFYFINRLTGYLRN heavy: not shown | 0.0741 µg/mL | 0.00164 µg/mL | –
3 | IFA2 (antibody, human IgG2, kappa) light: DIQMTQSPSSVSASVGDRVTITCRASQGIYSWLAWYQQKPGKAPNLLIYTASTLQSGVPSRFSGSGSGTDFTLTISSLQPEDFATYYCQQANIFPLTFGGGTKVEIKRTVAAPSVFIFPPSDEQLKSGTASVVCLLNNFYPREAKVQWKVDNALQSGNSQESVTEQDSKDSTYSLSSTLTLSKADYEKHKVYACEVTHQGLSSPVTKSFNRGECAEAAAKEAAAKAMSYNLLGFLQRSSNFQSQKLLWQLNGRLEYCLKDRMNFDIPEEIKQLQQFQKEDAALTIYEMLQNIFAIFRQDSSSTGWNETIVENLLANVYHQINHLKTVLEEKLEKEDFTRGKLMSSLHLKRYYGRILHYLKAKEYSHCAWTIVRVEILRNFYFINRLTGYLRN heavy: not shown | 0.111 µg/mL | 0.00014 µg/mL | –
4 | IFA10 (antibody, human IgG2, kappa) heavy: not shown light: DIQMTQSPSSVSASVGDRVTITCRASQGIYSWLAWYQQKPGKAPNLLIYTASTLQSGVPSRFSGSGSGTDFTLTISSLQPEDFATYYCQQANIFPLTFGGGTKVEIKRTVAAPSVFIFPPSDEQLKSGTASVVCLLNNFYPREAKVQWKVDNALQSGNSQESVTEQDSKDSTYSLSSTLTLSKADYEKHKVYACEVTHQGLSSPVTKSFNRGEC | 0.0265 µg/mL | 0.0045 µg/mL | –
5 | IFA11 (antibody, human IgG2, kappa) heavy: not shown light: DIQMTQSPSSVSASVGDRVTITCRASQGIYSWLAWYQQKPGKAPNLLIYTASTLQSGVPSRFSGSGSGTDFTLTISSLQPEDFATYYCQQANIFPLTFGGGTKVEIKRTVAAPSVFIFPPSDEQLKSGTASVVCLLNNFYPREAKVQWKVDNALQSGNSQESVTEQDSKDSTYSLSSTLTLSKADYEKHKVYACEVTHQGLSSPVTKSFNRGEC | 0.0428 µg/mL | 0.00178 µg/mL | –
6 | IFA9 (antibody, human IgG2, kappa) heavy: not shown light: DIQMTQSPSSVSASVGDRVTITCRASQGIYSWLAWYQQKPGKAPNLLIYTASTLQSGVPSRFSGSGSGTDFTLTISSLQPEDFATYYCQQANIFPLTFGGGTKVEIKRTVAAPSVFIFPPSDEQLKSGTASVVCLLNNFYPREAKVQWKVDNALQSGNSQESVTEQDSKDSTYSLSSTLTLSKADYEKHKVYACEVTHQGLSSPVTKSFNRGEC | 0.0426 µg/mL | 0.0007 µg/mL | –
7 | IFA8 (antibody, human IgG2, kappa) heavy: not shown light: DIQMTQSPSSVSASVGDRVTITCRASQGIYSWLAWYQQKPGKAPNLLIYTASTLQSGVPSRFSGSGSGTDFTLTISSLQPEDFATYYCQQANIFPLTFGGGTKVEIKRTVAAPSVFIFPPSDEQLKSGTASVVCLLNNFYPREAKVQWKVDNALQSGNSQESVTEQDSKDSTYSLSSTLTLSKADYEKHKVYACEVTHQGLSSPVTKSFNRGEC | 0.0397 µg/mL | 0.0029 µg/mL | –
8 | IFA49 (antibody, human IgG2, kappa) heavy: not shown light: DIQMTQSPSSVSASVGDRVTITCRASQGIYSWLAWYQQKPGKAPNLLIYTASTLQSGVPSRFSGSGSGTDFTLTISSLQPEDFATYYCQQANIFPLTFGGGTKVEIKRTVAAPSVFIFPPSDEQLKSGTASVVCLLNNFYPREAKVQWKVDNALQSGNSQESVTEQDSKDSTYSLSSTLTLSKADYEKHKVYACEVTHQGLSSPVTKSFNRGEC | 0.0658 µg/mL | – | 0.0782 µg/mL
9 | IFA20 (antibody, human IgG2, kappa) light: DIQMTQSPSSVSASVGDRVTITCRASQGIYSWLAWYQQKPGKAPNLLIYTASTLQSGVPSRFSGSGSGTDFTLTISSLQPEDFATYYCQQANIFPLTFGGGTKVEIKRTVAAPSVFIFPPSDEQLKSGTASVVCLLNNFYPREAKVQWKVDNALQSGNSQESVTEQDSKDSTYSLSSTLTLSKADYEKHKVYACEVTHQGLSSPVTKSFNRGECAEAAAKEAAAKAAEAAAKEAAAKAMSYNLLGFLQRSSNFQSQKLLWQLNGRLEYCLKDRMNFDIPEEIKQLQQFQKEDAALTIYEMLQNIFAIFRQDSSSTGWNETIVENLLANVYHQINHLKTVLEEKLEKEDFTRGKLMSSLHLKRYYGRILHYLKAKEYSHCAWTIVRVEILRNFYFINRLTGYLRN heavy: not shown | 0.182 µg/mL | 0.00234 µg/mL | –
10 | IFA126 (antibody, human IgG2, kappa) light: DIQMTQSPSSVSASVGDRVTITCRASQGIYSWLAWYQQKPGKAPNLLIYTASTLQSGVPSRFSGSGSGTDFTLTISSLQPEDFATYYCQQANIFPLTFGGGTKVEIKRTVAAPSVFIFPPSDEQLKSGTASVVCLLNNFYPREAKVQWKVDNALQSGNSQESVTEQDSKDSTYSLSSTLTLSKADYEKHKVYACEVTHQGLSSPVTKSFNRGECGGGGSGGGGSGGGGSMSYNLLGFLQRSSNFQSQKLLWQLNGRLEYCLKDRMNFDIPEEIKQLQQFQKEDAALTIYEMLQNIFAIFRQDSSSTGWNETIVENLLANVYHQINHLKTVLEEKLEKEDFTRGKLMSSLHLKRYYGRILHYLKAKEYSHCAWTIVRVEILRNFYFINRLTGYLRN heavy: not shown | 0.364 µg/mL | 0.00208 µg/mL | –
11 | IFA12 (antibody, human IgG2, kappa) light: DIQMTQSPSSVSASVGDRVTITCRASQGIYSWLAWYQQKPGKAPNLLIYTASTLQSGVPSRFSGSGSGTDFTLTISSLQPEDFATYYCQQANIFPLTFGGGTKVEIKRTVAAPSVFIFPPSDEQLKSGTASVVCLLNNFYPREAKVQWKVDNALQSGNSQESVTEQDSKDSTYSLSSTLTLSKADYEKHKVYACEVTHQGLSSPVTKSFNRGECPAPAMSYNLLGFLQRSSNFQCQKLLWQLNGRLEYCLKDRMNFDIPEEIKQLQQFQKEDAALTIYEMLQNIFAIFRQDSSSTGWNETIVENLLANVYHQINHLKTVLEEKLEKEDFTRGKLMSSLHLKRYYGRILHYLKAKEYSHCAWTIVRVEILRNFYFINRLTGYLRN heavy: not shown | 0.105 µg/mL | 0.00364 µg/mL | –
12 | IFA13 (antibody, human IgG2, kappa) light: DIQMTQSPSSVSASVGDRVTITCRASQGIYSWLAWYQQKPGKAPNLLIYTASTLQSGVPSRFSGSGSGTDFTLTISSLQPEDFATYYCQQANIFPLTFGGGTKVEIKRTVAAPSVFIFPPSDEQLKSGTASVVCLLNNFYPREAKVQWKVDNALQSGNSQESVTEQDSKDSTYSLSSTLTLSKADYEKHKVYACEVTHQGLSSPVTKSFNRGECPAPAMSYNLLGFLQRSSNFQSQKLLWQLNGRLEYCLKDRMNFDIPEEIKQLQQFQKEDAALTIYEMLQNIFAIFRQDSSSTGWNETIVENLLANVYHQINHLKTVLEEKLEKEDFTRGKLMSSLHLKRYYGRILHYLKAKEYSHCAWTIVRVEILRNFYFINRLTGYLRN heavy: not shown | 0.192 µg/mL | 0.0007 µg/mL | –
